Here are results for 15 molecules from patent US7005504 (Genentech, dated 2006).

What is called IC50 is the midpoint of a concentration-inhibition curve.

Test [1] concerns the target T1, recombinant human IL-8, (ser-IL-8)72 (human, UniProt P10145 28-99, In some assays the protein was iodinated (125I on tyrosine) or coated on a plate. The letters are unchanged.).
T1 sequence: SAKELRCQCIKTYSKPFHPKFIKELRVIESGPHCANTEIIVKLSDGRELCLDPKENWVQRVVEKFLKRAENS
The test is described as follows: cell-based or functional assay.

Test [2] concerns the target human monomeric IL-8 (human). The test is described as follows: cell-based or functional assay.
Test [3] addresses T2, rabbit IL-8 (rabbit, UniProt P19874 23-101, limits assumed).
T2 sequence (looked up): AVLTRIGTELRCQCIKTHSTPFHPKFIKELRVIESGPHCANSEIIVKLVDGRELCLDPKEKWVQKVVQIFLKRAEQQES
The test is described as follows: cell-based or functional assay.

Test [4] deals with T1, recombinant human IL-8, (ser-IL-8)72. The test is described as follows: inhibition of 125I-IL-8 binding to IL-8 receptors on human neutrophils; the legend column has no head, the text calls the values of this figure IC50's.
For test [5] the target is unchanged. The test is described as follows: cell-based or functional assay. The source holds these as a separate data set.
Test [6] deals with T2, rabbit IL-8. The test is described as follows: cell-based or functional assay. This is another data set of the same source.
Test [7] has as its target T1, recombinant human IL-8, (ser-IL-8)72. The test is described as follows: 125I-IL-8 neutrophil competition; reference not named in the sentence (chimeric F(ab) by Table 4).
The target is the same in test [8]. The test is described as follows: inhibition of 125I-IL-8 binding to the IL-8 receptors on human neutrophils (Bound/Total against cold ligand in nM).
The target is the same in test [9]. Described as above. The source holds these as a separate data set.
For test [10] the target is unchanged. The test is described as follows: 125I-IL-8 neutrophil competition, against F(ab)-1.
The target of test [11] is T3, rhesus IL-8 (rhesus, UniProt P67813 23-101, limits assumed).
T3 sequence (looked up): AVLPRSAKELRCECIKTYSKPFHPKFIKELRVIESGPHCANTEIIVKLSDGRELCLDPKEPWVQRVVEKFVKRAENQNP
The test is described as follows: cell-based or functional assay.

Read-outs that look alike come from different tables or passages of the source. Where only a bound is given, the exact number is not on record here.

B1: 6G4V11N35A F(ab')2 leucine zipper (other)
light: DIQMTQSPSSLSASVGDRVTITCRSSQSLVHGIGATYLHWYQQKPGKAPKLLIYKVSNRFSGVPSRFSGSGSGTDFTLTISSLQPEDFATYYCSQSTHVPLTFGQGTKVEIKRTVAAPSVFIFPPSDEQLKSGTASVVCLLNNFYPREAKVQWKVDNALQSGNSQESVTEQDSKDSTYSLSSTLTLSKADYEKHKVYACEVTHQGLSSPVTKSFNRGEC
heavy: not shown
For the molecule B1, the “average IC50, neutrophil chemotaxis” value in test [1] stood at 1.5 nM; in test [2], 1 nM; in test [3] it was 4 nM.

B2: 6G4V11N35A F(ab')2 modified with a single 40 kD branched PEG molecule (other)
light: DIQMTQSPSSLSASVGDRVTITCRSSQSLVHGIGATYLHWYQQKPGKAPKLLIYKVSNRFSGVPSRFSGSGSGTDFTLTISSLQPEDFATYYCSQSTHVPLTFGQGTKVEIKRTVAAPSVFIFPPSDEQLKSGTASVVCLLNNFYPREAKVQWKVDNALQSGNSQESVTEQDSKDSTYSLSSTLTLSKADYEKHKVYACEVTHQGLSSPVTKSFNRGEC
heavy: not shown
modifications: may carry PEG on a lysine or the N-terminus; site not defined
notes: one 40 kD branched PEG-succinimide (PEG2-NHS-40 KDa) per F(ab')2, on a primary amine; also called single 40 kD branched PEG-modified F(ab')2; branched(1)40 KDa-(N)-(Fab')2
In the case of B2, the IC50 in [4] stood at 0.38 nM.

B3: 6G4V11N35A F(ab')2 modified with a single 20 kD linear PEG molecule (other)
light: DIQMTQSPSSLSASVGDRVTITCRSSQSLVHGIGATYLHWYQQKPGKAPKLLIYKVSNRFSGVPSRFSGSGSGTDFTLTISSLQPEDFATYYCSQSTHVPLTFGQGTKVEIKRTVAAPSVFIFPPSDEQLKSGTASVVCLLNNFYPREAKVQWKVDNALQSGNSQESVTEQDSKDSTYSLSSTLTLSKADYEKHKVYACEVTHQGLSSPVTKSFNRGEC
heavy: not shown
modifications: may carry PEG on a lysine or the N-terminus; site not defined
notes: one 20 kD linear PEG-succinimide (M-SPA-20000) per F(ab')2, on a primary amine; also called single 20 kD linear PEG-modified F(ab')2; linear(1)20 KDa-(N)-(Fab')2
Take B3: the IC50 in [4] is 0.296 nM.

B4: chimeric 6G4.2.5 Fab (Fab, V domains shown)
VH: EIQLQQSGPELMKPGASVKISCKASGYSFSSHYMHWVKQSHGKSLEWIGYIDPSNGETTYNQKFKGKATLTVDTSSSTANVHLSSLTSDDSAVYFCARGDYRYNGDWFFDVWGAGTTVTVSS
VL: DIVMTQTPLSLPVSLGDQASISCRSSQSLVHGIGNTYLHWYLQKPGQSPKLLIYKVSNRFSGVPDRFSGSGSGTDFTLRISRVEAEDLGLYFCSQSTHVPLTFGAGTKLELKR
Consider B4, for which the “IC50 (4 parameter fit) of the inhibition of human IL-8 (100 nM) stimulated elastase release from human neutrophils” value in test [5] was 0.635 molar ratio Fab:IL-8 (x axis; 100 nM IL-8). Besides, the “IC50 (4 parameter fit) of the inhibition of rabbit IL-8 (100 nM) stimulated elastase release from human neutrophils (absorbance 405 nM)” value in test [6] is 1.04 molar ratio Fab:rIL-8 (x axis; 100 nM rIL-8).

B5: humanized 6G425 F(ab)-1 (Fab, V domains shown)
VH: EVQLVESGGGLVQPGGSLRLSCAASGYSFSSHYMHWVRQAPGKGLEWVGYIDPSNGETTYNQKFKGRFTISRDNSKNTLYLQMNSLRAEDTAVYYCARGDYRYNGDWFFDVWGQGTLVTVSS
VL: DIQMTQSPSSLSASVGDRVTITCRSSQSLVHGIGNTYLHWYQQKPGKAPKLLIYKVSNRFSGVPSRFSGSGSGTDFTLTISSLQPEDFATYYCSQSTHVPLTFGQGTKVEIKR
notes: Fab with human kappa subgroup I light chain and human IgG1 subgroup III heavy chain of phagemid pEMX1; unaltered CDR swap; also called version 1; V1
For B5, in test [7], the “fold reduction in binding affinity” value came to 5.5 fold. In addition, the “IC50 (read off the curve)” value in test [8] was approximately 20 nM.

B6: 6G4V11N35A Fab' modified with 40 kD linear PEG-maleimide (Fab, V domains shown)
VH: EVQLVQSGGGLVQPGGSLRLSCAASGYSFSSHYMHWVRQAPGKGLEWVGYIDPSNGETTYNQKFKGRFTLSRDNSKNTAYLQMNSLRAEDTAVYYCARGDYRYNGDWFFDVWGQGTLVTVSS
VL: DIQMTQSPSSLSASVGDRVTITCRSSQSLVHGIGATYLHWYQQKPGKAPKLLIYKVSNRFSGVPSRFSGSGSGTDFTLTISSLQPEDFATYYCSQSTHVPLTFGQGTKVEIKR
modifications: 40 kD linear methoxy-PEG-maleimide on the free cysteine in the hinge region
B6: in [1], the “IC50, PMN chemotaxis” value stood at 3.7 nM.

B7: 6G4V11N35E Fab (Fab, V domains shown)
VH: EVQLVQSGGGLVQPGGSLRLSCAASGYSFSSHYMHWVRQAPGKGLEWVGYIDPSNGETTYNQKFKGRFTLSRDNSKNTAYLQMNSLRAEDTAVYYCARGDYRYNGDWFFDVWGQGTLVTVSS
VL: DIQMTQSPSSLSASVGDRVTITCRSSQSLVHGIGETYLHWYQQKPGKAPKLLIYKVSNRFSGVPSRFSGSGSGTDFTLTISSLQPEDFATYYCSQSTHVPLTFGQGTKVEIKR
As to B7, in [1], the “IC50, neutrophil chemotaxis” value was approximately 1.2 nM.

B8: 6G4V11N35A Fab (Fab, V domains shown)
VH: EVQLVQSGGGLVQPGGSLRLSCAASGYSFSSHYMHWVRQAPGKGLEWVGYIDPSNGETTYNQKFKGRFTLSRDNSKNTAYLQMNSLRAEDTAVYYCARGDYRYNGDWFFDVWGQGTLVTVSS
VL: DIQMTQSPSSLSASVGDRVTITCRSSQSLVHGIGATYLHWYQQKPGKAPKLLIYKVSNRFSGVPSRFSGSGSGTDFTLTISSLQPEDFATYYCSQSTHVPLTFGQGTKVEIKR
notes: also called 6G4.2.5V11N35A Fab; Fab control
For the molecule B8, the “IC50, PMN chemotaxis” value in test [1] was determined as 0.8 nM. The “average IC50, neutrophil chemotaxis” value in test [1] worked out at 2.7 nM; in test [2] it was 1 nM; in [3], 5 nM. In [9], the “IC50 (read off the curve)” value was approximately 1 nM.

B9: humanized 6G425 F(ab)-2 (Fab, V domains shown)
VH: EVQLVESGGGLVQPGGSLRLSCAASGYSFSSHYMHWVRQAPGKGLEWVGYIDPSNGETTYNQKFKGRATISRDNSKNTLYLQMNSLRAEDTAVYYCARGDYRYNGDWFFDVWGQGTLVTVSS
VL: DIQMTQSPSSLSASVGDRVTITCRSSQSLVHGIGNTYLHWYQQKPGKAPKLLIYKVSNRFSGVPSRFSGSGSGTDFTLTISSLQPEDFATYYCSQSTHVPLTFGQGTKVEIKR
notes: template F(ab)-1; also called version 2
B9: the “fold decrease in IL-8 binding” value in test [10] was less than 2 fold.

B10: full length 6G4V11N35E IgG1 (antibody, V domains shown, not shown: a dimerising Fc or GST)
VH: EVQLVQSGGGLVQPGGSLRLSCAASGYSFSSHYMHWVRQAPGKGLEWVGYIDPSNGETTYNQKFKGRFTLSRDNSKNTAYLQMNSLRAEDTAVYYCARGDYRYNGDWFFDVWGQGTLVTVSS
VL: DIQMTQSPSSLSASVGDRVTITCRSSQSLVHGIGETYLHWYQQKPGKAPKLLIYKVSNRFSGVPSRFSGSGSGTDFTLTISSLQPEDFATYYCSQSTHVPLTFGQGTKVEIKR
For the molecule B10, the “IC50, neutrophil chemotaxis” value came out at 6 nM in test [1] and 2 nM in test [3].

B11: humanized 6G425 F(ab)-8 (Fab, V domains shown)
VH: EVQLVESGGGLVQPGGSLRLSCAASGYSFSSHYMHWVKQAPGKGLEWVGYIDPSNGETTYNQKFKGRFTLSRDNSKNTAYLQMNSLRAEDTAVYYCARGDYRYNGDWFFDVWGQGTLVTVSS
VL: DIQMTQSPSSLSASVGDRVTITCRSSQSLVHGIGNTYLHWYQQKPGKAPKLLIYKVSNRFSGVPSRFSGSGSGTDFTLTISSLQPEDFATYYCSQSTHVPLTFGQGTKVEIKR
For B11, the “IC50, neutrophil chemotaxis” value in [1] worked out at 12 nM.

B12: humanized 6G425 F(ab)-3 (Fab, V domains shown)
VH: EVQLVESGGGLVQPGGSLRLSCAASGYSFSSHYMHWVRQAPGKGLEWVGYIDPSNGETTYNQKFKGRFTISVDNSKNTLYLQMNSLRAEDTAVYYCARGDYRYNGDWFFDVWGQGTLVTVSS
VL: DIQMTQSPSSLSASVGDRVTITCRSSQSLVHGIGNTYLHWYQQKPGKAPKLLIYKVSNRFSGVPSRFSGSGSGTDFTLTISSLQPEDFATYYCSQSTHVPLTFGQGTKVEIKR
notes: template F(ab)-1; also called version 3
Turning to B12, the “fold decrease in IL-8 binding” value in test [10] was less than 2 fold.

B13: humanized 6G425 F(ab)-9 (humanized 6G4V11 Fab) (Fab, V domains shown)
VH: EVQLVQSGGGLVQPGGSLRLSCAASGYSFSSHYMHWVRQAPGKGLEWVGYIDPSNGETTYNQKFKGRFTLSRDNSKNTAYLQMNSLRAEDTAVYYCARGDYRYNGDWFFDVWGQGTLVTVSS
VL: DIQMTQSPSSLSASVGDRVTITCRSSQSLVHGIGNTYLHWYQQKPGKAPKLLIYKVSNRFSGVPSRFSGSGSGTDFTLTISSLQPEDFATYYCSQSTHVPLTFGQGTKVEIKR
Regarding B13, the “IC50, neutrophil chemotaxis” value in [2] is approximately 15 nM; in test [11], approximately 22 nM.

B14: full length 6G4V11N35A IgG1 (antibody, V domains shown, not shown: a dimerising Fc or GST)
VH: EVQLVQSGGGLVQPGGSLRLSCAASGYSFSSHYMHWVRQAPGKGLEWVGYIDPSNGETTYNQKFKGRFTLSRDNSKNTAYLQMNSLRAEDTAVYYCARGDYRYNGDWFFDVWGQGTLVTVSS
VL: DIQMTQSPSSLSASVGDRVTITCRSSQSLVHGIGATYLHWYQQKPGKAPKLLIYKVSNRFSGVPSRFSGSGSGTDFTLTISSLQPEDFATYYCSQSTHVPLTFGQGTKVEIKR
B14: the “IC50, neutrophil chemotaxis” value in test [1] and in test [3] was 4 nM each time.

B15: chimeric 5.12.14 Fab (Fab, V domains shown)
VH: EVQLVESGGGLVPPGGSLKLSCAASGFIFSSYGMSWVRQTPGKSLELVATINNNGDSTYYPDSVKGRFTISRDNAKNTLYLQMSSLKSEDTAMFYCARALISSATWFGYWGQGTLVTVSA
VL: DIVMTQSQKFMSTSVGDRVSVTCKASQNVGTNVAWYQQKPGQSPKALIYSSSYRYSGVPDRFTGSGSGTDFTLTISHVQSEDLADYFCQQYNIYPLTFGPGTKLELRR
Regarding B15, the “IC50 (4 parameter fit) of the inhibition of human IL-8 (100 nM) stimulated elastase release from human neutrophils” value in test [5] was 0.643 molar ratio Fab:IL-8 (x axis; 100 nM IL-8).
